± gives the standard deviation of the averaged measurements.
Test: total protein half-life in vivo (active degradation + dilution); higher = more stable protein
[1] = E. coli NCM3722 delta-clpP delta-lon delta-hslV, growth: N-lim chemostat, doubling time 6 h
[2] = E. coli NCM3722 delta-clpP, growth: N-lim chemostat, doubling time 6 h
[3] = E. coli NCM3722 delta-hslV, growth: N-lim chemostat, doubling time 6 h
[4] = E. coli NCM3722 delta-lon, growth: N-lim chemostat, doubling time 6 h
[5] = E. coli NCM3722 delta-smpB, growth: N-lim chemostat, doubling time 6 h
[6] = wild type E. coli NCM3722, growth: C-lim chemostat, doubling time 3 h
[7] = wild type E. coli NCM3722, growth: C-lim chemostat, doubling time 6 h
[8] = wild type E. coli NCM3722, growth: C-lim chemostat, doubling time 12 h
[9] = wild type E. coli NCM3722, growth: N-lim chemostat, doubling time 6 h
[10] = wild type E. coli NCM3722, growth: N-lim chemostat, doubling time 12 h
[11] = wild type E. coli NCM3722, growth: P-lim chemostat, doubling time 6 h
[12] = wild type E. coli NCM3722, growth: P-lim chemostat, doubling time 12 h

Sequence	total protein half-life in vivo [1] [h]	total protein half-life in vivo [2] [h]	total protein half-life in vivo [3] [h]	total protein half-life in vivo [4] [h]	total protein half-life in vivo [5] [h]	total protein half-life in vivo [6] [h]	total protein half-life in vivo [7] [h]	total protein half-life in vivo [8] [h]	total protein half-life in vivo [9] [h]	total protein half-life in vivo [10] [h]	total protein half-life in vivo [11] [h]	total protein half-life in vivo [12] [h]
MQARVKWVEGLTFLGESASGHQILMDGNSGDKAPSPMEMVLMAAGGCSAIDVVSILQKGRQDVVDCEVKLTSERREEAPRLFTHINLHFIVTGRDLKDAAVARAVDLSAEKYCSVALMLEKAVNITHSYEVVAA [P0ADX1]	5.2 ± 0.18	5.55 ± 1.8	4.69 ± 0.32	5.8 ± 1.1	5.32 ± 0.37	> 4	6.49 ± 0.41	10.8 ± 3.3	4.88 ± 0.78	8.73 ± 0.8	5.45 ± 0.51	–
MQATATTLDHEQEYTPINSRNKVLVASLIGTAIEFFDFYIYATAAVIVFPHIFFPQGDPTAATLQSLATFAIAFVARPIGSAVFGHFGDRVGRKATLVASLLTMGISTVVIGLLPGYATIGIFAPLLLALARFGQGLGLGGEWGGAALLATENAPPRKRALYGSFPQLGAPIGFFFANGTFLLLSWLLTDEQFMSWGWRVPFIFSAVLVIIGLYVRVSLHESPVFEKVAKAKKQVKIPLGTLLTKHVRVTVLGTFIMLATYTLFYIMTVYSMTFSTAAAPVGLGLPRNEVLWMLMMAVIGFGVMVPVAGLLADAFGRRKSMVIITTLIILFALFAFNPLLGSGNPILVFAFLLLGLSLMGLTFGPMGALLPELFPTEVRYTGASFSYNVASILGASVAPYIAAWLQTNYGLGAVGLYLAAMAGLTLIALLLTHETRHQSL	–	–	–	–	–	–	–	2.58 ± 0.1	–	–	2.33 ± 0.58	2.89 ± 1.6
MQEIMQFVGRHPILSIAWIALLVAVLVTTFKSLTSKVKVITRGEATRLINKEDAVVVDLRQRDDFRKGHIAGSINLLPSEIKANNVGELEKHKDKPVIVVDGSGMQCQEPANALTKAGFAQVFVLKEGVAGWAGENLPLVRGK [P0AG27]	5.92 ± 0.38	6.89 ± 0.76	6.06 ± 0.078	5.77 ± 1	5.7 ± 0.28	3.71 ± 0.18	–	10.9 ± 1.4	5.96 ± 0.49	–	6.47 ± 0.095	–
MQENQQITKKEQYNLNKLQKRLRRNVGEAIADFNMIEEGDRIMVCLSGGKDSYTMLEILRNLQQSAPINFSLVAVNLDQKQPGFPEHVLPEYLEKLGVEYKIVEENTYGIVKEKIPEGKTTCSLCSRLRRGILYRTATELGATKIALGHHRDDILQTLFLNMFYGGKMKGMPPKLMSDDGKHIVIRPLAYCREKDIQRFADAKAFPIIPCNLCGSQPNLQRQVIADMLRDWDKRYPGRIETMFSAMQNVVPSHLCDTNLFDFKGITHGSEVVNGGDLAFDREEIPLQPACWQPEEDENQLDELRLNVVEVK	5.11 ± 0.8	3.63 ± 0.23	0.983 ± 0.28	1.44	1.0485 ± 0.00067	1.63 ± 0.051	2.26 ± 0.035	2.85 ± 0.35	1.26	1.58 ± 0.57	2.23 ± 0.24	4.26 ± 0.73
MQERHTEQDYRALLIADTPIIDVRAPIEFEHGAMPAAINLPLMNNDERAAVGTCYKQQGSDAALALGHKLVAGEIRQQRMDAWRAACLQNPQGILCCARGGQRSHIVQSWLHAAGIDYPLVEGGYKALRQTAIQATIELAQKPIVLIGGCTGSGKTLLVQQQPNGVDLEGLARHRGSAFGRTLQPQLSQASFENLLAAEMLKTDARQNLRLWVLEDESRMIGSNHLPECLRERMTQAAIAVVEDPFEIRLERLNEEYFLRMHHDFTHAYGDEQGWQEYCEYLHHGLSAIKRRLGLQRYNELAARLDAALTTQLTTGSTDGHLAWLVPLLEEYYDPMYRYQLEKKAEKVVFRGEWAEVAEWVKAR	4.83 ± 0.89	4.43 ± 0.057	4.35 ± 0.77	4.417 ± 0.0075	3.75 ± 0.5	3.16 ± 0.1	5.87 ± 0.98	10.2 ± 1.6	4.54 ± 0.24	7.414 ± 0.067	5.64 ± 0.47	–
MQESIQLVIDSLPFLLKGAGYTLQLSIGGMFFGLLLGFILALMRLSPIWPVRWLARFYISIFRGTPLIAQLFMIYYGLPQFGIELDPIPSAMIGLSLNTAAYAAETLRAAISSIDKGQWEAAASIGMTPWQTMRRAILPQAARVALPPLSNSFISLVKDTSLAATIQVPELFRQAQLITSRTLEVFTMYLAASLIYWIMATVLSTLQNHFENQLNRQEREPK [P0AFT2]	–	7.13	7.23	–	–	3.14	5.37 ± 0.3	15.7 ± 0.28	6.07 ± 0.14	11.2 ± 4.2	6 ± 0.41	11.9 ± 0.19
MQEYTNHSDTTFALRNISFRVPGRTLLHPLSLTFPAGKVTGLIGHNGSGKSTLLKMLGRHQPPSEGEILLDAQPLESWSSKAFARKVAYLPQQLPPAEGMTVRELVAIGRYPWHGALGRFGAADREKVEEAISLVGLKPLAHRLVDSLSGGERQRAWIAMLVAQDSRCLLLDEPTSALDIAHQVDVLSLVHRLSQERGLTVIAVLHDINMAARYCDYLVALRGGEMIAQGTPAEIMRGETLEMIYGIPMGILPHPAGAAPVSFVY	5.18	5.55	–	–	5.19 ± 0.12	2.65 ± 0.19	6.7	11.4	6.03 ± 0.81	10.7	–	12.9 ± 3
MQFDWSAIWPAIPLLIEGAKMTLWISVLGLAGGLVIGLLAGFARTFGGWIANHVALVFIEVIRGTPIVVQVMFIYFALPMAFNDLRIDPFTAAVVTIMINSGAYIAEITRGAVLSIHKGFREAGLALGLSRWETIRYVILPLALRRMLPPLGNQWIISIKDTSLFIVIGVAELTRQGQEIIAGNFRALEIWSAVAVFYLIITLVLSFILRRLERRMKIL [P0AEQ6]	7.5 ± 0.32	5.86 ± 0.24	6.66 ± 0.23	5.82 ± 0.19	6.3 ± 1.3	3.216 ± 0.017	6.15 ± 0.25	–	6.75 ± 0.56	11.4 ± 4.3	–	13 ± 0.43
MQFLNMFFFDIYPYIAGAVFLIGSWLRYDYGQYTWRAASSQMLDRKGMNLASNLFHIGILGIFVGHFFGMLTPHWMYEAWLPIEVKQKMAMFAGGASGVLCLIGGVLLLKRRLFSPRVRATTTGADILILSLLVIQCALGLLTIPFSAQHMDGSEMMKLVGWAQSVVTFHGGASQHLDGVAFIFRLHLVLGMTLFLLFPFSRLIHIWSVPVEYLTRKYQLVRARH	–	–	–	–	–	–	–	–	–	> 16	–	–
MQFSKMHGLGNDFMVVDAVTQNVFFSPELIRRLADRHLGVGFDQLLVVEPPYDPELDFHYRIFNADGSEVAQCGNGARCFARFVRLKGLTNKRDIRVSTANGRMVLTVTDDDLVRVNMGEPNFEPSAVPFRANKAEKTYIMRAAEQTILCGVVSMGNPHCVIQVDDVDTAAVETLGPVLESHERFPERANIGFMQVVKREHIRLRVYERGAGETQACGSGACAAVAVGIQQGLLAEEVRVELPGGRLDIAWKGPGHPLYMTGPAVHVYDGFIHL [P0A6K1]	6.36 ± 1.1	6.48 ± 2.1	5.87 ± 0.47	5.47 ± 0.1	5.32 ± 0.55	3.44 ± 0.073	5.92 ± 0.45	9.56 ± 0.77	5.53 ± 0.74	9.83 ± 0.98	5.42 ± 0.38	11.859 ± 0.004
MQGKALQDFVIDKIDDLKGQDIIALDVQGKSSITDCMIICTGTSSRHVMSIADHVVQESRAAGLLPLGVEGENSADWIVVDLGDVIVHVMQEESRRLYELEKLWS [P0AAT6]	6.28 ± 1.2	3.63 ± 1.7	2.21 ± 0.063	5.5 ± 0.84	2.65 ± 0.19	2.6 ± 0.59	3.58	> 16	2.72	3.51 ± 0.17	2.2	4.01
MQGTKIRLLAGGLLMMATAGYVQADALQPDPAWQQGTLSNGLQWQVLTTPQRPSDRVEIRLLVNTGSLAESTQQSGYSHAIPRIALTQSGGLDAAQARSLWQQGIDPKRPMPPVIVSYDTTLFNLSLPNNRNDLLKEALSYLANATGKLTITPETINHALQSQDMVATWPADTKEGWWRYRLKGSTLLGHDPADPLKQPVEAEKIKDFYQKWYTPDAMTLLVVGNVDARSVVDQINKTFGELKGKRETPAPVPTLSPLRAEAVSIMTDAVRQDRLSIMWDTPWQPIRESAALLRYWRADLAREALFWHVQQALSASNSKDIGLGFDCRVLYLRAQCAINIESPNDKLNSNLNLVARELAKVRDKGLPEEEFNALVAQKKLELQKLFAAYARADTDILMGQRMRSLQNQVVDIAPEQYQKLRQDFLNSLTVEMLNQDLRQQLSNDMALILLQPKGEPEFNMKALQAVWDQIMAPSTAAATTSVATDDVHPEVTDIPPAQ	5.67 ± 0.23	6.56 ± 1.4	6.33 ± 0.55	–	6.16 ± 0.15	3.02 ± 0.35	6.42 ± 0.41	9.83 ± 0.8	6.08 ± 0.24	12.55 ± 0.063	6.3 ± 0.32	14.2 ± 0.33
MQHETKMENQSWLKKLARRLGPGHVVNLCFIVVLLFSTLLTWREVVVLEDAYISSQRNHLENVANALDKHLQYNVDKLIFLRNGMREALVAPLDFTSLRDAVTEFEQHRDEHAWKIELNRRRTLPVNGVSDALVSEGNLLSRENESLDNEITAALEVGYLLRLAHNSSSMVEQAMYVSRAGFYVSTQPTLFTRNVPTRYYGYVTQPWFIGHSQRENRHRAVRWFTSQPEHASNTEPQVTVSVPVDSNNYWYGVLGMSIPVRTMQQFLRNAIDKNLDGEYQLYDSKLRFLTSSNPDHPTGNIFDPRELALLAQAMEHDTRGGIRMDSRYVSWERLDHFDGVLVRVHTLSEGVRGDFGSISIALTLLWALFTTMLLISWYVIRRMVSNMYVLQSSLQWQAWHDTLTRLYNRGALFEKARPLAKLCQTHQHPFSVIQVDLDHFKAINDRFGHQAGDRVLSHAAGLISSSLRAQDVAGRVGGEEFCVILPGASLTEAAEVAERIRLKLNEKEMLIAKSTTIRISASLGVSSSEETGDYDFEQLQSLADRRLYLAKQAGRNRVFASDNA	–	7.2 ± 0.57	6.48 ± 0.5	–	5.94 ± 0.3	3.34 ± 0.062	6.39 ± 0.087	12.3 ± 0.47	6.01 ± 0.53	–	6.56 ± 0.22	12.2 ± 0.31
